Reference: patent publication US20090099029A1, “Methods and substrates for conducting assays” (Invitrogen Corporation, priority 2005, published 2009)

Test system: kinases of Table 6 on Myelin Basic Protein (MBP)
Test: Kinase assay using MBP substrate, ProQ Diamond stain (Table 6)
Assay type: biochemical
Conditions: kinase printed on MBP-coated slide; 20 uM ATP, 30° C.; ProQ Diamond Microarray Stain; graded Strong/Weak/Negative
Outline: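 Bovine dephosphorylated MBP coated on aldehyde- or epoxy-glass slides, kinases printed on top; reaction buffer pH 7.5 with 4 mM MgCl2, 20 uM ATP, 5% DMSO, ± inhibitor, at 30° C. Phosphorylation detected by ProQ Diamond stain, 30 min in dark.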

Molecule | MBP Kinase Activity
PRKD2(PKD2) (protein, left off: a dimerising Fc or GST) MATAPSYPAGLPGSPGPGSPPPPGGLELQSPPPLLPQIPAPGSGVSFHIQIGLTREFVLLPAASELAHVKQLACSIVDQKFPECGFYGLYDKILLFKHDPTSANLLQLVRSSGDIQEGDLVEVVLSASATFEDFQIRPHALTVHSYRAPAFCDHCGEMLFGLVRQGLKCDGCGLNYHKRCAFSIPNNCSGARKRRLSSTSLASGHSVRLGTSESLPCTAEELSRSTTELLPRRPPSSSSSSSASSYTGRPIELDKMLLSKVKVPHTFLIHSYTRPTVCQACKKLLKGLFRQGLQCKDCKFNCHKRCATRVPNDCLGEALINGDVPMEEATDFSEADKSALMDESEDSGVIPGSHSENALHASEEEEGEGGKAQSSLGYIPLMRVVQSVRHTTRKSSTTLREGWVVHYSNKDTLRKRHYWRLDCKCITLFQNNTTNRYYKEIPLSEILTVESAQNFSLVPPGTNPHCFEIVTANATYFVGEMPGGTPGGPSGQGAEAARGWETAIRQALMPVILQDAPSAPGHAPHRQASLSISVSNSQIQENVDIATVYQIFPDEVLGSGQFGVVYGGKHRKTGRDVAVKVIDKLRFPTKQESQLRNEVAILQSLRHPGIVNLECMFETPEKVFVVMEKLHGDMLEMILSSEKGRLPERLTKFLITQILVALRHLHFKNIVHCDLKPENVLLASADPFPQVKLCDFGFARIIGEKSFRRSVVGTPAYLAPEVLLNQGYNRSLDMWSVGVIMYVSLSGTFPFNEDEDINDQIQNAAFMYPASPWSHISAGAIDLINNLLQVKMRKRYSVDKSLSHPWLQEYQTWLDLRELEGKMGERYITHESDDARWEQFAAEHPLPGSGLPTDRDLGGACPPQDHDMQGLAERISVL | Strong
PRKCN(PKD3) (protein, left off: a dimerising Fc or GST) MSANNSPPSAQKSVLPTAIPAVLPAASPCSSPKTGLSARLSNGSFSAPSLTNSRGSVHTVSFLLQIGLTRESVTIEAQELSLSAVKDLVCSIVYQKFPECGFFGMYDKILLFRHDMNSENILQLITSADEIHEGDLVEVVLSALATVEDFQIRPHTLYVHSYKAPTFCDYCGEMLWGLVRQGLKCEGCGLNYHKRCAFKIPNNCSGVRKRRLSNVSLPGPGLSVPRPLQPEYVALPSEESHVHQEPSKRIPSWSGRPIWMEKMVMCRVKVPHTFAVHSYTRPTICQYCKRLLKGLFRQGMQCKDCKFNCHKRCASKVPRDCLGEVTFNGEPSSLGTDTDIPMDIDNNDINSDSSRGLDDTEEPSPPEDKMFFLDPSDLDVERDEEAVKTISPSTSNNIPLMRVVQSIKHTKRKSSTMVKEGWMVHYTSRDNLRKRHYWRLDSKCLTLFQNESGSKYYKEIPLSEILRISSPRDFTNISQGSNPHCFEIITDTMVYFVGENNGDSSHNPVLAATGVGLDVAQSWEKAIRQALMPVTPQASVCTSPGQGKDHKDLSTSISVSNCQIQENVDISTVYQIFADEVLGSGQFGIVYGGKHRKTGRDVAIKVIDKMRFPTKQESQLRNEVAILQNLHHPGIVNLECMFETPERVFVVMEKLHGDMLEMILSSEKSRLPERITKFMVTQILVALRNLHFKNIVHCDLKPENVLLASAEPFPQVKLCDFGFARIIGEKSFRRSVVGTPAYLAPEVLRSKGYNRSLDMWSVGVIIYVSLSGTFPFNEDEDINDQIQNAAFMYPPNPWREISGEAIDLINNLLQVKMRKRYSVDKSLSHPWLQDYQTWLDLREFETRIGERYITHESDDARWEIHAYTHNLVYPKHFIMAPNPDDMEEDP | Weak
PRKX (protein, left off: a dimerising Fc or GST) MEAPGLAQAAAAESDSRKVAEETPDGAPALCPSPEALSPEPPVYSLQDFDTLATVGTGTFGRVHLVKEKTAKHFFALKVMSIPDVIRLKQEQHVHNEKSVLKEVSHPFLIRLFWTWHDERFLYMLMEYVPGGELFSYLRNRGRFSSTTGLFYSAEIICAIEYLHSKEIVYRDLKPENILLDRDGHIKLTDFGFAKKLVDRTWTLCGTPEYLAPEVIQSKGHGRAVDWWALGILIFEMLSGFPPFFDDNPFGIYQKILAGKIDFPRHLDFHVKDLIKKLLVVDRTRRLGNMKNGANDVKHHRWFRSVDWEAVPQRKLKPPIVPKIAGDGDTSNFETYPENDWDTAAPVPQKDLEIFKNF | Negative
